Reference: patent US20240218070A1 (MERUS N V, published 2024)

T1: human FAP (huFAP) expressed on cells (human, UniProt Q12884 1-760)
T1 construct: also called WI-38 cells
T1 sequence: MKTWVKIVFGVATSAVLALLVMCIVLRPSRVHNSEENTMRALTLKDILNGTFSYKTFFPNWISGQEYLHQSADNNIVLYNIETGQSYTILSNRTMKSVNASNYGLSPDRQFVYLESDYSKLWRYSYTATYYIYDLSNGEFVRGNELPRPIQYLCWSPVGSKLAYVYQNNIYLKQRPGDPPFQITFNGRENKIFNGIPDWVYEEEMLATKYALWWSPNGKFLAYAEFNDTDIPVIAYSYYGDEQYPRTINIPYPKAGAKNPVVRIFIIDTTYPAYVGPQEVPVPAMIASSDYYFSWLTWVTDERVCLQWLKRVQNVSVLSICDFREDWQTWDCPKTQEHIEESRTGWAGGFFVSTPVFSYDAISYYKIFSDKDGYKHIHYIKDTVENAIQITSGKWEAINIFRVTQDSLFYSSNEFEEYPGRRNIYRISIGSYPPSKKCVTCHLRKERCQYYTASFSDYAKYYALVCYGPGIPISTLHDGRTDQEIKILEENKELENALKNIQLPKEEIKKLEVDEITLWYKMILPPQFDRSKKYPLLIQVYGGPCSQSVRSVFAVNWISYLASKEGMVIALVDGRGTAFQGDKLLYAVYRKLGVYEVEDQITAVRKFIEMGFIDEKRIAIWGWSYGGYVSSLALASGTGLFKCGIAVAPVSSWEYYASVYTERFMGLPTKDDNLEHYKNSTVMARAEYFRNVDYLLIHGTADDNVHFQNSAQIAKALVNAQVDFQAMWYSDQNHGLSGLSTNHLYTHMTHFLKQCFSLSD

B1: anti-human FAP bivalent monospecific IgG comprising heavy chain variable region SEQ ID NO: 15 (antibody, V domains shown)
VH: QLQLQESGPGLVKPSETLSLTCTVSGGSISSSSYFWAWIRQPPGKGLEFIGNIYYSGSTYYNPSLKSRVTISVDTSKNQFSLKLSSVTAADTAVYYCARPSYYGSGNYYFAFWGQGTLVTVSS
VL: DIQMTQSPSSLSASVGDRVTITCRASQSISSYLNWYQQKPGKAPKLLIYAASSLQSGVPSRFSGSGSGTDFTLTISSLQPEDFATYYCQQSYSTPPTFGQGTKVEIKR
notes: IgG1 format, common light chain VK1-39/JK1
B2: anti-human FAP bivalent monospecific IgG comprising heavy chain variable region SEQ ID NO: 69 (antibody, V domains shown)
VH: EVQLVETGGGLIQPGGSLRLSCAASGFTVSSNYMSWVRQAPGKGLEWVSVIYSGGSTYYADSVKGRFTISRDNSKNTLYLQMNSLRAEDTAVYYCARGPTDAYPYLDYLWGQGTLVTVSS
VL: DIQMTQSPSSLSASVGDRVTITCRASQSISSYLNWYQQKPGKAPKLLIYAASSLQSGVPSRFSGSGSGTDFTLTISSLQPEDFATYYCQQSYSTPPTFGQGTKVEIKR
notes: IgG1 format, common light chain VK1-39/JK1; also called human/mouse cross-reactive FAP IgG
B3: anti-human FAP bivalent monospecific IgG comprising heavy chain variable region SEQ ID NO: 11 (antibody, V domains shown)
VH: EVQLVESGGGLVQPGGSLRLSCAASGFTFSSYAMIWVRQAPGKGLEWVSAISGSGGYTFNADSVKGRFTMSRDNSKNTLYLQMNSLRAEDTAVYYCAKRDGGYEGGAFDIWGQGTLVTVSS
VL: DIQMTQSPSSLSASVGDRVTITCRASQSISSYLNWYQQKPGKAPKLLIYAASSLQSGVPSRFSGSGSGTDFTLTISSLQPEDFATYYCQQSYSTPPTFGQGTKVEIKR
notes: as for B1

What was measured:
[1] = target: T1, human FAP (huFAP) expressed on cells; assay: FACS titration (10 ug/ml to 3.16 ng/ml) on WI-38 cells
Protocol: The human anti-FAP panel was tested on WI-38 cells (endogenously expressing huFAP) and binding was measured by FACS.
The target cells were harvested, counted, and centrifuged for 5 min at 300 g at 4° C. Cells were then resuspended in FACS buffer at a concentration of 1×10⁶ cells/ml and transferred (200,000 cells/well) to a U-bottom 96-well FACS plate (BD, cat. #353910). Cells were washed by adding 200 μl PBS and centrifuged for 3 min at 300 g at 4 °C. Cells were then centrifuged for 3 min at 300 g at 4° C. and supernatant was discarded. Antibodies were diluted in an 8 steps, semi-log dilution series ranging from 10 ug/ml to 3.16 ng/ml in FACS buffer (50 μ/well), mixed, and incubated for 30 min at 2-8° C. in the dark. A titration of the sibrotuzumab analog was included as positive control and used to normalize data. The negative control TT antibody was included as negative control. Cells were washed by adding 150 μl FACS buffer and centrifuged for 3 min at 300 g at 4° C. Supernatant was discarded, and cells were washed again by adding 200 μl FACS buffer to the plate. Cells were then centrifuged for 3 min at 300 g at 4° C. and afterwards the supernatant was discarded. […] Fluorescence intensity of the cells was then measured on the iQue VBR (Intellicyt).

[2] = target: T1, human FAP (huFAP) expressed on cells; assay: FACS, 293FF cells stably expressing huFAP, IgG at 2.5 ug/ml
Protocol: The binding of all test and control antibodies to the cells was tested at a single concentration of 2.5 ug/ml. Goat-anti-human IgG F(ab)2-PE (Invitrogen, H10104) was used as secondary antibody (1:100 in FACS buffer). Ab0625 was used at 10 ug/ml and its binding was detected using Ab0250 (Becton Dickinson, 550767) (1:100 in FACS buffer). The FACS buffer containing PBS (Gibco, cat. #10010-015), 0.5% BSA (Thermo Scientific, cat. #37525), and 2 mM EDTA (Invitrogen, cat. #15575-020) was kept ice cold throughout the assay.
The target cells were harvested, counted, and centrifuged for 5 min at 300 g at 4 °C. Cells were then resuspended in FACS buffer at a concentration of 1×10⁶ cells/ml and transferred (200,000 cells/well) to a U-bottom 96-well FACS plate (BD, cat. #353910). Cells were then centrifuged for 3 min at 300 g at 4° C. and supernatant was discarded. 50 μl of primary antibody solutions were added to the cells, mixed, and incubated for 30 min at 2-8° C. in the dark. Cells were washed by adding 150 μl FACS buffer and centrifuged for 3 min at 300 g at 4° C. Supernatant was discarded, and cells were washed again by adding 200 μl FACS buffer to the plate. Cells were then centrifuged for 3 min at 300 g at 4° C. and afterwards the supernatant was discarded. 50 μl of secondary antibody solutions were added to the cells, mixed, and incubated for 30 min at 2-8° C. in the dark. […]

Row | Binder | binding result [1] | binding result [2]
1 | B1 | binds | 
2 | B2 | binds | 
3 | B3 |  | binds
